In this series the target is T1, MbpAgo (Mucilaginibacter paludis, UniProt H1YCU5 1-795).
T1 sequence: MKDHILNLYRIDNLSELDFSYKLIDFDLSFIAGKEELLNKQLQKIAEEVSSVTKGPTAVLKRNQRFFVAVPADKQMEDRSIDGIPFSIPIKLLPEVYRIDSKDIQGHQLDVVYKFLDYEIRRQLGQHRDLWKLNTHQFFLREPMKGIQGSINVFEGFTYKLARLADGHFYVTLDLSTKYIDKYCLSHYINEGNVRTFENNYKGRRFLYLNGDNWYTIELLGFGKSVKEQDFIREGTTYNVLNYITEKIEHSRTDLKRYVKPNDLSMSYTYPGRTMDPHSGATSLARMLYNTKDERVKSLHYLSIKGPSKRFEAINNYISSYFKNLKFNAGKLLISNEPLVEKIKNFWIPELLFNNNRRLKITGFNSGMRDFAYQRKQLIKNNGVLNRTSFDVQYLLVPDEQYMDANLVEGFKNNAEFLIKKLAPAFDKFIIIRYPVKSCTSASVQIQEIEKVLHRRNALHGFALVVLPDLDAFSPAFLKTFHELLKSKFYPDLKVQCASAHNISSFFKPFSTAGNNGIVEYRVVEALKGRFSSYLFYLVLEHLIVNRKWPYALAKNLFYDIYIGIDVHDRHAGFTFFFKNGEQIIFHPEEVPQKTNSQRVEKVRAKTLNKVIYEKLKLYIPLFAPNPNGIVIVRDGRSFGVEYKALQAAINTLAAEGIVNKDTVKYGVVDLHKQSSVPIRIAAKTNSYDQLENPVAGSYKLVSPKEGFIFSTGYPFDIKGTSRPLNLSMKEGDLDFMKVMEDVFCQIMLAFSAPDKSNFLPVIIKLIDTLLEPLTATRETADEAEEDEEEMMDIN
Description: EMSA.

B1: 18 nt 5'OH-gDNA (FAM T-gDNA) (ssDNA)
DNA: TGAGGTAGTAGGTTGTAT
For the molecule B1, the Kd was 292 ± 25.2 nM.

B2: 18 nt 5'P-gDNA (FAM T-gDNA) (ssDNA)
DNA: TGAGGTAGTAGGTTGTAT
modifications: 5' phosphate
Molecule B2 gave a Kd of 254 ± 23.3 nM.

The values above are taken from publication doi:10.1101/2021.06.08.447469.
